This passage reports Kd results from the Immune Epitope Database (IEDB).

Holding throughout (settings): source organism: Yersinia pestis Nepal516
One assay addresses HLA-C*14:02. In words: IEDB peptide-MHC binding, purified MHC/direct/fluorescence; filed as Kd, often an IC50 or EC50 that approximates it; ≥ and ≤ were set here for values at or beyond the usual limits of such assays.
The next assay addresses HLA-C*15:02. Described as above.
A further assay has as its target HLA-A*02:01. The assay is described as follows: IEDB peptide-MHC binding, purified MHC/competitive/fluorescence; filed as Kd, often an IC50 or EC50 that approximates it; ≥ and ≤ were set here for values at or beyond the usual limits of such assays.
Another assay addresses HLA-A*26:01. The description is as above.
The next assay concerns the target HLA-A*32:15. The assay is described as above.
Another assay has as its target HLA-B*15:01. Described as above.
The next assay concerns the target HLA-B*15:42. The description is as above.
Another assay has as its target HLA-B*27:20. Described as above.
The target in a further assay is HLA-B*40:13. The description is as above.
A further assay addresses HLA-B*45:06. The assay is described as above.
Another assay addresses HLA-B*58:01. The assay is described as above.
A further assay concerns the target HLA-B*83:01. The assay is described as above.
For another assay, the target named is HLA-C*06:02. The description is as above.

For YMYDFILRF, the Kd (as a rule, the equilibrium constant for the complex coming apart) with HLA-C*14:02 is 4.11 µM; in the assay with HLA-C*15:02 it was not below 20 µM; with HLA-A*02:01, 0.0159 µM; with HLA-A*26:01 it was not below 20 µM; in the assay with HLA-A*32:15, 0.908 µM; in the assay with HLA-B*15:01, 2.33 µM. Further, the Kd with HLA-B*15:42 was not below 5 µM; with HLA-B*27:20, 0.0633 µM; with HLA-B*40:13 it was 0.159 µM; in the assay with HLA-B*45:06, not below 5 µM; in the assay with HLA-B*58:01, not below 20 µM; with HLA-B*83:01 it was not below 5 µM. In addition, the Kd in the assay with HLA-C*06:02 came to 1.18 µM.
